# Laboratory results taken from patent US8097440B1, “Engineered microorganisms capable of producing target compounds under anaerobic conditions” (Gevo, Inc., priority 2008, dated 2012).
# Experiments:
# [1] = test system: Lactococcus lactis alcohol dehydrogenase Ll_AdhA, SEQ ID NO: 67; conditions: NADH as cofactor; cited from earlier work
# [2] = substrate: NC(=O)C1=CN([C@@H]2O[C@H](COP(=O)(O)OP(=O)(O)OC[C@H]3O[C@@H](n4cnc5c(N)ncnc54)[C@H](OP(=O)(O)O)[C@@H]3O)[C@@H](O)[C@H]2O)C=CC1; experiment: KARI cuvette assay, purified Ec_IlvC^B8-his6; type: biochemical, E. coli; conditions: other: purified; acetolactate as substrate
# Method: (§1) KARI cuvette assay: KARI activity was assayed kinetically by monitoring the decrease in NAD(P)H concentration by measuring the absorbance at 340 nm. A reaction buffer was prepared containing 250 mM potassium phosphate pH 7, 1 mM DTT and 10 mM MgCl2. Cell pellets were resuspended (0.25 g wet weight/mL buffer) in 250 mM potassium phosphate (KPi) buffer containing 1 mM DTT and 10 mM MgCl2. The resuspended cells were lysed by sonication for 1 min with a 50% duty cycle and pelleted at 11000×g and 4° C. for 15 min. A reaction mixture consisting of 910 μl reaction buffer, 50 μl acetolactate, and 20 μl lysate was prepared in a cuvette. The reaction was initiated by addition of 20 μL of 10 mM NAD(P)H. A substrate free control was conducted using reaction buffer without the addition of acetolactate.
# (§2) Purification of KARI: Cell pellets used for purification were resuspended in purification buffer A (20 mM Tris, 20 mM imidazol, 100 mM NaCl, 10 mM MgCl2, pH 7.4). KARI was purified by IMAC (Immobilized metal affinity chromatography) over a 1 ml Histrap High Performance (histrap HP) column pre-charged with Nickel (GE Healthcare) using an Akta FPLC system (GE Healthcare). The column was equilibrated with four column volumes (cv) of buffer A. After injecting the crude extract, the column was washed with buffer A for 2 cv, followed by a wash step with a mixture of 10% elution buffer B (20 mM Tris, 300 mM imidazol, 100 mM NaCl, 10 mM MgCl2, pH 7.4) for 5 cv. KARI variants were eluted at 40% buffer B and stored at 4° C.
# (§3) As a next step, the gene encoding variant Ec_llvC^Q110V-his6 (SEQ ID NO: 23) was used as template to generate individual combinations of the mutation Q110V with other mutations: R68L, A71T, A71S, R76G, R76S, R76T, S78D, and R76D. After screening the variants as described above, the most promising ones were expressed, purified, and characterized. Table 29 lists the KM values in μM on NADPH and NADH for Ec_llvC^his6, Ec_llvC^Q110V-his6, and variants of Ec_llvC^Q110V-his6. […] The A71S mutation was introduced into Ec_llvC^B8-his6 resulting in a variant Ec_llvC^B8A71S-his6, which yielded 44% catalytic efficiency on NADH compared to the catalytic efficiency of wild-type KARI on NADPH (FIG. 19 and Table 30).
# [3] = substrate: NC(=O)C1=CN([C@@H]2O[C@H](COP(=O)(O)OP(=O)(O)OC[C@H]3O[C@@H](n4cnc5c(N)ncnc54)[C@H](O)[C@@H]3O)[C@@H](O)[C@H]2O)C=CC1; experiment: KARI cuvette assay, purified Ec_IlvC^B8-his6; type: biochemical, E. coli
# Method: as §1, §2, §3
# [4] = substrate: NC(=O)C1=CN([C@@H]2O[C@H](COP(=O)(O)OP(=O)(O)OC[C@H]3O[C@@H](n4cnc5c(N)ncnc54)[C@H](OP(=O)(O)O)[C@@H]3O)[C@@H](O)[C@H]2O)C=CC1; experiment: KARI assay, purified Ec_IlvC^2H10-his6; type: biochemical, E. coli; conditions: other: purified; acetolactate as substrate
# Method: as §1, §2
# (§4) Only 20% of the enzymes of the recombination library were active on NADH. After screening 1,000 clones using the NADH depletion assay at 340 nm, 26 KARI variants were selected for a rescreen by the high-throughput assay described in Example 14 and eight thereof were expressed in 25 ml LBamp medium in shake flasks according to the protocol for cell growth and protein expression in shake flasks as described in Example 14, purified according to the protocol for purification of KARI enzymes as described in Example 14, and NAD(P)H depletion at 340 nm was measured again. […] The KM values of variants Ec_llvC^2H10-his6 and Ec_llvC^6E6-his6 were measured and the catalytic efficiencies were calculated.
# [5] = substrate: NC(=O)C1=CN([C@@H]2O[C@H](COP(=O)(O)OP(=O)(O)OC[C@H]3O[C@@H](n4cnc5c(N)ncnc54)[C@H](O)[C@@H]3O)[C@@H](O)[C@H]2O)C=CC1; experiment: KARI assay, purified Ec_IlvC^2H10-his6; type: biochemical, E. coli; conditions: other: purified; acetolactate as substrate
# Method: as §1, §2, §4
# [6] = substrate: NC(=O)C1=CN([C@@H]2O[C@H](COP(=O)(O)OP(=O)(O)OC[C@H]3O[C@@H](n4cnc5c(N)ncnc54)[C@H](OP(=O)(O)O)[C@@H]3O)[C@@H](O)[C@H]2O)C=CC1; experiment: KARI assay, purified Ec_IlvC^6E6-his6; type: biochemical, E. coli; conditions: other: Example 15, expressed in E. coli BL21(DE3), purified; 30.0 °C
# Method: as §1, §2, §4
# (§5) Improved variants were expressed and purified from GEVO1186. 20 mL SC-URA medium overnight cultures were grown at 30° C. and 250 rpm in 250 mL flasks and were then used to inoculate 96 well deep well plates on the next morning. 50 μL of the overnight cultures were transferred into 600 μL SC-URA medium per well. The plates were then grown at 30° C. and 250 rpm in a humidified plate shaker for 8 h. In order to the harvest, the cultures were transferred into 50 mL Falcon tubes and then spun down at 4° C. and 5,000 rpm for 10 min. The pellets were frozen until they were processed and purified as described in Example 14 above.
# [7] = substrate: NC(=O)C1=CN([C@@H]2O[C@H](COP(=O)(O)OP(=O)(O)OC[C@H]3O[C@@H](n4cnc5c(N)ncnc54)[C@H](O)[C@@H]3O)[C@@H](O)[C@H]2O)C=CC1; experiment: KARI assay, purified Ec_IlvC^6E6-his6; type: biochemical, E. coli; conditions: 30.0 °C
# Method: as §1, §2, §4, §5
# [8] = substrate: NC(=O)C1=CN([C@@H]2O[C@H](COP(=O)(O)OP(=O)(O)OC[C@H]3O[C@@H](n4cnc5c(N)ncnc54)[C@H](OP(=O)(O)O)[C@@H]3O)[C@@H](O)[C@H]2O)C=CC1; experiment: KARI cuvette assay, purified Ec_IlvC^his6 (parent / wild type); type: biochemical, E. coli; conditions: other: purified; acetolactate as substrate
# Method: as §1, §2
# (§6) The three best variants Ec_llvC^S78D-his6, Ec_llvC^Q110A-his6, and Ec_llvC^Q110V-his6 were characterized according to their specific activities [U/mg], kcat values [s^−1], catalytic efficiencies [M^−1*s^−1] (FIG. 18), and KM values (Table 27).
# as §4
# [9] = substrate: NC(=O)C1=CN([C@@H]2O[C@H](COP(=O)(O)OP(=O)(O)OC[C@H]3O[C@@H](n4cnc5c(N)ncnc54)[C@H](O)[C@@H]3O)[C@@H](O)[C@H]2O)C=CC1; experiment: as above; type: biochemical, E. coli
# Method: as §1, §2, §6, §4
# [10] = other: purified, acetolactate as substrate
# [11] = other: Example 15, expressed in E. coli BL21(DE3), purified
# [12] = other: Example 16, expressed in yeast GEVO1186, purified
molecule,measurement,setting,value
CC=O [Acetaldehyde],Km,[1],500 µM
same,kcat,[1],10 s⁻¹
CC(C)C=O [isobutyraldehyde],Km,[1],9100 µM
same,kcat,[1],6.6 s⁻¹
"E. coli KARI Ec_IlvC variant Ec_IlvC^B8-his6 (Q110V, S78D), SEQ ID NO: 27 (Escherichia coli K-12; Q110V/S78D) (protein) MANYFNTLNLRQQLAQLGKCRFMGRDEFADGASYLQGKKVVIVGCGAQGLNQGLNMRDSGLDISYALRKEAIAEKRADWRKATENGFKVGTYEELIPQADLVINLTPDKVHSDVVRTVQPLMKDGAALGYSHGFNIVEVGEQIRKDITVVMVAPKCPGTEVREEYKRGFGVPTLIAVHPENDPKGEGMAIAKAWAAATGGHRAGVLESSFVAEVKSDLMGEQTILCGMLQAGSLLCFDKLVEEGTDPAYAEKLIQFGWETITEALKQGGITLMMDRLSNPAKLRAYALSEQLKEIMAPLFQKHMDDIISGEFSSGMMADWANDDKKLLTWREETGKTAFETAPQYEGKIGEQEYFDKGVLMIAMVKAGVELAFETMVDSGIIEESAYYESLHELPLIANTIARKRLYEMNVVISDTAEYGNYLFSYACVPLLKPFMAELQPGDLGKAIPEGAVDNGQLRDVNEAIRSHAIEQVGKKLRGYMTDMKRIAVAGLEHHHHHH",Km,[2],65 µM
same,kcat,[2],2.2 s⁻¹
same,kcat/Km,[2],"34,188 M^−1 * s^−1"
same,Km,[3]; [10],65 µM
same,kcat,[3]; [10],2.0 s⁻¹
same,kcat/Km,[3]; [10],"31,775 M^−1 * s^−1"
same,kcat/Km,[3]; with NADH,34200 M⁻¹ s⁻¹
"E. coli KARI Ec_IlvC variant Ec_IlvC^2H10-his6 (A71S, R76D, S78D, Q110A), SEQ ID NO: 31 (Escherichia coli K-12; A71S/Q110A/R76D/S78D) (protein, T37 values cited for the gene on pGV1976) MANYFNTLNLRQQLAQLGKCRFMGRDEFADGASYLQGKKVVIVGCGAQGLNQGLNMRDSGLDISYALRKESIAEKDADWRKATENGFKVGTYEELIPQADLVINLTPDKAHSDVVRTVQPLMKDGAALGYSHGFNIVEVGEQIRKDITVVMVAPKCPGTEVREEYKRGFGVPTLIAVHPENDPKGEGMAIAKAWAAATGGHRAGVLESSFVAEVKSDLMGEQTILCGMLQAGSLLCFDKLVEEGTDPAYAEKLIQFGWETITEALKQGGITLMMDRLSNPAKLRAYALSEQLKEIMAPLFQKHMDDIISGEFSSGMMADWANDDKKLLTWREETGKTAFETAPQYEGKIGEQEYFDKGVLMIAMVKAGVELAFETMVDSGIIEESAYYESLHELPLIANTIARKRLYEMNVVISDTAEYGNYLFSYACVPLLKPFMAELQPGDLGKAIPEGAVDNGQLRDVNEAIRSHAIEQVGKKLRGYMTDMKRIAVAGLEHHHHHH",Km,[4],568 µM
same,kcat,[4],0.61 s⁻¹
same,kcat/Km,[4],"1,078 M^−1 * s^−1"
same,Km,[5],44.2 µM
same,kcat,[5],2.6 s⁻¹
same,kcat/Km,[5],60322 M⁻¹ s⁻¹
"E. coli KARI Ec_IlvC variant Ec_IlvC^6E6-his6 (A71S, R76D, S78D, Q110V), SEQ ID NO: 34 (Escherichia coli K-12; A71S/Q110V/R76D/S78D) (protein, T37 values cited for the gene on pGV1975) MANYFNTLNLRQQLAQLGKCRFMGRDEFADGASYLQGKKVVIVGCGAQGLNQGLNMRDSGLDISYALRKESIAEKDADWRKATENGFKVGTYEELIPQADLVINLTPDKVHSDVVRTVQPLMKDGAALGYSHGFNIVEVGEQIRKDITVVMVAPKCPGTEVREEYKRGFGVPTLIAVHPENDPKGEGMAIAKAWAAATGGHRAGVLESSFVAEVKSDLMGEQTILCGMLQAGSLLCFDKLVEEGTDPAYAEKLIQFGWETITEALKQGGITLMMDRLSNPAKLRAYALSEQLKEIMAPLFQKHMDDIISGEFSSGMMADWANDDKKLLTWREETGKTAFETAPQYEGKIGEQEYFDKGVLMIAMVKAGVELAFETMVDSGIIEESAYYESLHELPLIANTIARKRLYEMNVVISDTAEYGNYLFSYACVPLLKPFMAELQPGDLGKAIPEGAVDNGQLRDVNEAIRSHAIEQVGKKLRGYMTDMKRIAVAGLEHHHHHH",Km,[6],653 µM
same,kcat,[6],0.2 s⁻¹
same,kcat/Km,[6],386 M⁻¹ s⁻¹
same,Km,[7]; [11],31.6 µM
same,kcat,[7]; [11],2.3 s⁻¹
same,kcat/Km,[7]; [11],74045 M⁻¹ s⁻¹
same,Km,[7]; [12],39 µM
same,kcat,[7]; [12],2.4 s⁻¹
same,kcat/Km,[7]; [12],"63,000 M^−1 * S^−1"
"Escherichia coli KARI (ketol-acid reductoisomerase) Ec_IlvC^his6, wild type IlvC (SEQ ID NO: 13) with his6-tag, SEQ ID NO: 15 (Escherichia coli K-12) (protein) MANYFNTLNLRQQLAQLGKCRFMGRDEFADGASYLQGKKVVIVGCGAQGLNQGLNMRDSGLDISYALRKEAIAEKRASWRKATENGFKVGTYEELIPQADLVINLTPDKQHSDVVRTVQPLMKDGAALGYSHGFNIVEVGEQIRKDITVVMVAPKCPGTEVREEYKRGFGVPTLIAVHPENDPKGEGMAIAKAWAAATGGHRAGVLESSFVAEVKSDLMGEQTILCGMLQAGSLLCFDKLVEEGTDPAYAEKLIQFGWETITEALKQGGITLMMDRLSNPAKLRAYALSEQLKEIMAPLFQKHMDDIISGEFSSGMMADWANDDKKLLTWREETGKTAFETAPQYEGKIGEQEYFDKGVLMIAMVKAGVELAFETMVDSGIIEESAYYESLHELPLIANTIARKRLYEMNVVISDTAEYGNYLFSYACVPLLKPFMAELQPGDLGKAIPEGAVDNGQLRDVNEAIRSHAIEQVGKKLRGYMTDMKRIAVAGLEHHHHHH",Km,[8],41 µM
same,kcat,[8],3.6 s⁻¹
same,kcat/Km,[8],87300 M⁻¹ s⁻¹
same,Km,[9]; [10],"1,075 μM"
same,kcat,[9]; [10],1.0 s⁻¹
same,kcat/Km,[9]; [10],"1,000 M^−1 * s^−1"
same,kcat/Km,[9]; with NADH,87300 M⁻¹ s⁻¹
